Reference: PMC10901774 (2024)
Each block holds one binder with its values, some of them ahead of it. Where no end group is shown, it is not given here. [ ]: non-standard residue; d: D form.

B1: recombinant CHIP (C-terminus of Hsc70-interacting protein) TPR domain (domain or fragment)
chain: GASPSAQELKEQGNRLFVGRKYPEAAACYGRAITRNPLVAVYYTNRALCYLKMQQHEQALADCRRALELDGQSVKAHFFLGQCQLEMESYDEAIANLQRAYSLAKEQRLNFGDDIPSALRIAKKKRWNSIEERR
modifications: biotinylated in the TR-FRET assay
B2: recombinant MDM2 (mouse double minute 2 homolog) (domain or fragment)
chain: SQIPASEQETLVRPKPLLLKLLKSVGAQKDTYTMKEVLFYLGQYIMTKRLYDEKQQHIVYCSNDLLGDLFGVPSFSVKEHRKIYTMIYRNLVVVN
modifications: biotinylated in the TR-FRET assay
B3: synthetic D-MDM2 (domain or fragment)
chain: B2 chain
modifications: all residues D-amino acids; biotin at the N-terminus through a PEG12 linker
B4: synthetic L-CHIP (TPR domain) (domain or fragment)
chain: SPSAQELKEQGNRLFVGRKYPEAAACYGRAITRNPLVAVYYTNRALCYLKMQQHEQALADCRRALELDGQSVKAHFFLGQCQLEMESYDEAIANLQRAYSLAKEQRLNFGDDIPSALRIAKKKRWNSIEERR
modifications: biotin at the N-terminus through a PEG12 linker
B5: synthetic D-CHIP (TPR domain) (domain or fragment)
chain: B4 chain
modifications: all residues D-amino acids; biotin at the N-terminus through a PEG12 linker

Key:
[1] = target: FAM-Hsp70 peptide (peptide model of the heat shock protein 70 C-terminus), L-form (UniProt P0DMV8, 5(6)-carboxyfluorescein (FAM)); assay: FRET
FAM-Hsp70 peptide (peptide model of the heat shock protein 70 C-terminus), L-form, sequence (P0DMV8 whole entry, looked up, tested part not stated): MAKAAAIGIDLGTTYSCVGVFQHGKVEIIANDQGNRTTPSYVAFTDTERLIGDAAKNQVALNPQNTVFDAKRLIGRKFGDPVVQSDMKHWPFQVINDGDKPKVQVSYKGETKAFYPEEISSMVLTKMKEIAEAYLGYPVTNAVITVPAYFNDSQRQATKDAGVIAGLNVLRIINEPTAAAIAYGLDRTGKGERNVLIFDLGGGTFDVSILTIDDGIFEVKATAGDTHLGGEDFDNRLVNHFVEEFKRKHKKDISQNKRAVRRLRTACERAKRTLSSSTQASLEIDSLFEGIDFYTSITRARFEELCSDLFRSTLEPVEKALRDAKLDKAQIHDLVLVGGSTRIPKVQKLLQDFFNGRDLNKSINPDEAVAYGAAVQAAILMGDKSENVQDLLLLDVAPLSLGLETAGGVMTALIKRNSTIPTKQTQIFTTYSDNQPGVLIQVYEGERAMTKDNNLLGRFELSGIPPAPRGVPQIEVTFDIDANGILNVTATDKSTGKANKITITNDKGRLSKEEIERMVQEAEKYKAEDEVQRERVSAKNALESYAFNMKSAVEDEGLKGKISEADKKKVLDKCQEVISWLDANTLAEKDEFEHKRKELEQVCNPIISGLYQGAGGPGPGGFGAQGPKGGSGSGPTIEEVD

[2] = target: p53-derived model peptide, FAM-labelled (L-form) (UniProt P04637, 5(6)-carboxyfluorescein (FAM)); assay: FRET
p53-derived model peptide, FAM-labelled (L-form), sequence (P04637 whole entry, looked up, tested part not stated): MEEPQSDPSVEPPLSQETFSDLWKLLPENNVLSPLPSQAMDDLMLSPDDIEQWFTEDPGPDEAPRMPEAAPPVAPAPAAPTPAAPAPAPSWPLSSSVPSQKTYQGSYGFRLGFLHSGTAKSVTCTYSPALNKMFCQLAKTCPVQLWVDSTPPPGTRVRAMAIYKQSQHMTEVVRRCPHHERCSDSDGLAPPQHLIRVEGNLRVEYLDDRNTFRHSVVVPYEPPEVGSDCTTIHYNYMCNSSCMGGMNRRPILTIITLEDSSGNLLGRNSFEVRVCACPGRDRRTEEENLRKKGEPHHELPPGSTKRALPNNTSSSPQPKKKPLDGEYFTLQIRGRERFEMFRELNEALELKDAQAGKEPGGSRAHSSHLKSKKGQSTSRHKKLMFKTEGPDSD

[3] = target: p53-derived model peptide, FAM-labelled (D-form) (UniProt P04637, all residues D-amino acids; 5(6)-carboxyfluorescein (FAM)); assay: FRET
p53-derived model peptide, FAM-labelled (D-form), sequence (P04637 whole entry, looked up, tested part not stated): as above

[4] = target: B1; assay: FP
[5] = target: FAM-Hsp70 peptide (peptide model of the heat shock protein 70 C-terminus), D-form (UniProt P0DMV8, all residues D-amino acids; 5(6)-carboxyfluorescein (FAM)); assay: FRET
FAM-Hsp70 peptide (peptide model of the heat shock protein 70 C-terminus), D-form, sequence (P0DMV8 whole entry, looked up, tested part not stated): as the sequence (P0DMV8 whole entry, looked up, tested part not stated) above

Binder: B1
Kd [1]: 4000 nM

Binder: B2
Kd [2]: 10 nM

Binder: B3
Kd [3]: 13 nM

IC50 [4]: 1230 nM
Binder: [dP][dW][dW][dE][dC][dL][dS][dQ][dA][dD][dD][dC][dD][dF][dR] (staple (positions not given here)) [D-H202]

Binder: B4
Kd [1]: 3800 nM

Binder: B5
Kd [5]: 3500 nM
